Assay results as given in US20260216242A1, “ALPP-SPECIFIC VARIANT ANTIGEN BINDING MOLECULES” (ALMAC DISCOVERY LIMITED, priority 2022, published 2026).
Residue numbers refer to the chain shown, from its start.

What was measured:
[1] = biological target: T1, ALPL expressed on the surface of CHO cells (CHO-ALPL) (Homo sapiens, UniProt P05186); experiment: Cell-surface binding by flow cytometry, CHO-ALPL; settings: VHH His proteins
T1 construct: expressed in transfected cells
T1 sequence (P05186 18-501 limits assumed): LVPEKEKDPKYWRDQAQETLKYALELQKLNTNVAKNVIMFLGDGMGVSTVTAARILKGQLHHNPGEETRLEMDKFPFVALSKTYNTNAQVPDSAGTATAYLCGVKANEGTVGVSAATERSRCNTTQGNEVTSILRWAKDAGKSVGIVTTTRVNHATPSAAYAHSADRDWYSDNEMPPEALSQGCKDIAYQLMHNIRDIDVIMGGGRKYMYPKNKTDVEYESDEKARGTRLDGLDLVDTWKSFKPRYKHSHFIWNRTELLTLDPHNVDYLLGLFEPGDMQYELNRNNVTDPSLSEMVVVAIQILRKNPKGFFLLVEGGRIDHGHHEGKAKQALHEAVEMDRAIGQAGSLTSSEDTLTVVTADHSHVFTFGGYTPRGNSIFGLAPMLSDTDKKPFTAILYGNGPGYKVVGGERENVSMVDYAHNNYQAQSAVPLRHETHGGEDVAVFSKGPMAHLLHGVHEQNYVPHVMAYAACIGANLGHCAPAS
Protocol: (§1) C-terminal His tagged VHH proteins were assessed for ALPP, ALPPL2, ALPI and ALPL cell-surface binding by flow cytometry. Binders encompassing different epitope bins were screened on CHO cells stably expressing ALPP, ALPPL2, ALPI or ALPL. High levels of cell-surface proteins expression were confirmed for each of the cell-lines by flow cytometry.
(§2) Cell surface binding of test agents to hALPP isoforms was characterized in four CHO-ALPP isoform stably transfected cell lines (CHO-ALPP, CHO-ALPPL2, CHO-ALPI and CHO-ALPL) and the resulting KDapp values determined. Adherent cells were detached from tissue culture flasks by incubating with 0.1% EDTA/PBS solution at 37° C. for ~10 minutes or until cells detached easily. Cells were re-suspended in ice-cold PBS/2% FCS in 15 ml tubes and centrifuged at 1700 rpm for 5 mins at 4° C. Supernatant was removed and the cell pellet re-suspended in PBS/2% FCS. A cell count was performed using a Chemometec Nucleocounter NC-202 and 2.5×10^5 cells were aliquoted per test sample into a 96 well plate. Cells were incubated with 100 μl of test agents at a range of concentrations, plus controls for 1 hr on ice. The sample plate was centrifuged at 1700 rpm for 5 mins at 4° C. The supernatant was removed, and a wash performed by re-suspending the cell pellets in 0.25 mL of ice-cold PBS/2% FCS using a multichannel pipette. Samples were again centrifuged at 1700 rpm for 5 min at 4° C. Supernatant was removed and two further washes performed as described. After the final wash and centrifugation step, excess liquid was removed by blotting the plate on tissue paper. Binding of VHH (His6 tagged) agents was determined by adding 100 μl of anti-x6His tag Ab (Abcam) per cell pellet sample as appropriate and incubating on ice for 30 mins. Wash steps were performed as described previously. Fitc-anti-mouse antibody (ThermoFisher) was used to detect binding of the VHH (His6 tagged) agents by incubating with the appropriate samples for 30 min on ice in the dark. Wash steps were performed as described previously. All cell pellets were finally re-suspended in […] of ice-cold PBS/2% FCS and left on ice in the dark prior to analysis on a Merck-Millipore Guava EasyCyte HT or Thermo Fisher Attune N×T flow cytometer.
(§3) VHH-hFc proteins were assessed for human ALPP, ALPPL2, ALPI and ALPL cell-surface binding by flow cytometry. Binders were screened on CHO cells stably expressing human ALPP, ALPPL2, ALPI or ALPL.
(§4) Cell surface binding of test agents to hALPP isoforms was characterized in four CHO-ALPP isoform transfectant cell lines (CHO-ALPP, CHO-ALPPL2, CHO-ALPI and CHO-ALPL) and the resulting KDapp values determined. Adherent cells were detached from tissue culture flasks by incubating with 0.1% EDTA/PBS solution at 37° C. for ~10 minutes or until cells detached easily. Cells were re-suspended in ice-cold PBS/2% FCS in 15 ml tubes and centrifuged at 1700 rpm for 5 mins at 4° C. Supernatant was removed and the cell pellet re-suspended in PBS/2% FCS. A cell count was performed using a Chemometec Nucleocounter NC-202 and 2.5×10^5 cells were aliquoted per test sample into a 96 well plate. Cells were incubated with 100 μl of test agents at a range of concentrations, plus controls for 1 hr on ice. The sample plate was centrifuged at 1700 rpm for 5 mins at 4° C. The supernatant was removed, and a wash performed by re-suspending the cell pellets in 0.25 mL of ice-cold PBS/2% FCS using a multichannel pipette. Samples were again centrifuged at 1700 rpm for 5 min at 4° C. Supernatant was removed and two further washes performed as described. After the final wash and centrifugation step, excess liquid was removed by blotting the plate on tissue paper. Binding of VHH-hFc agents was determined by adding 100 μl of Fitc-anti-human Ab (ThermoFisher) and incubating for 30 mins on ice in the dark. Wash steps were performed as described previously. […]

[2] = biological target: T2, ALPI expressed on the surface of CHO cells (CHO-ALPI) (Homo sapiens, UniProt P09923); experiment: Cell-surface binding by flow cytometry, CHO-ALPI; settings: for ALPI MFI as % of the ALPP MFI: VHH His at 350 nM; for KDapp CHO-ALPI: VHH His proteins, up to 350 nM; for KDapp CHO-ALPI / binding to ALPI on CHO cells (in words): flow cytometry; for binding to ALPI on CHO cells (in words): VHH proteins
T2 construct: expressed in transfected cells
T2 sequence (P09923 20-503 limits assumed): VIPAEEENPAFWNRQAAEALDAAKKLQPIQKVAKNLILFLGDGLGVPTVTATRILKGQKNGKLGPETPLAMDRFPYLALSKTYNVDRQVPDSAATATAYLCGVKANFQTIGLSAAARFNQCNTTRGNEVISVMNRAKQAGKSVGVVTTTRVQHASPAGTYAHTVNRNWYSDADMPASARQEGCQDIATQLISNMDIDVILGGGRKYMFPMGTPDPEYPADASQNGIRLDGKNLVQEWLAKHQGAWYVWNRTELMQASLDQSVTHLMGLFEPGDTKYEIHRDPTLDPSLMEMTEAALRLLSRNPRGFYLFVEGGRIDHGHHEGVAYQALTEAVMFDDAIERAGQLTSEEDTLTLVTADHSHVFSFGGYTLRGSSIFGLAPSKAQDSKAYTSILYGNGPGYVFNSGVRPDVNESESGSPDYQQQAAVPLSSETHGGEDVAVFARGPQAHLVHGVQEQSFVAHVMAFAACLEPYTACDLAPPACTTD
Protocol: as §1, §2, §3, §4

B1: D04: ALPP/ALPPL2 targeting VHH domain, SEQ ID NO: 26 (protein)
VHH: QVQLVESGGGLVQPGGSLRLSCAASESTFSINVMGWYRQAPGKQRELVATITSGDITNYADSVKGRFTISRDNAENTVYLRTNSLKPEDTAVYYCNARGEYHSGNEYDYWGQGTQVTVSS
[1]
  KDapp CHO-ALPL: No binding
[2]
  ALPI MFI as % of the ALPP MFI: 9.5%
  KDapp CHO-ALPI: Minimal
  binding to ALPI on CHO cells (in words): weak binding

B2: A06: ALPP/ALPPL2 targeting VHH domain, SEQ ID NO: 17; tested C-terminally His-tagged (protein)
VHH: QVHLVESGGGLVQAGGSLRLSCAASGRTFLSMGWFRQAPGKEREFVAAISWTGGSTGYADSVKGRFTISRESDKETMYLQMNSLKPEDTAVYYCAARGDVYYGGDDATRYKYWGQGTQVTVSS
modifications: C-terminal His tag
notes: tested C-terminally His-tagged
[1]
  KDapp CHO-ALPL: No binding
[2]
  KDapp CHO-ALPI: No binding

B3: B01: ALPP/ALPPL2 targeting VHH domain, SEQ ID NO: 20 (protein)
VHH: QVQLVESGGGLVQAGGSLRLSCEVTRSPMPIDTMAWYRQAPGRQRELVAIISRSGSTNYADSVKGRFTISRNDTKSTMYKSTMYLKMNTLELEDTGVYYCNAVGLWNGAEYWGQGTQVTVSS
[1]
  KDapp CHO-ALPL: No binding
[2]
  KDapp CHO-ALPI: No binding

B4: D10: ALPP targeting VHH domain, SEQ ID NO: 28 (protein)
VHH: QVQLVESGGGLVQPGGSLRLSCAASGSIFSVNTMGWYRQAPGKQRDLVAVATSGGTIHYADSVKGRFTISRDNAKNTVYLQMNSLKPEDTAVYYCNLVVPYGMIAGDHDYWGQGTKVTVSS
[1]
  KDapp CHO-ALPL: No binding
[2]
  KDapp CHO-ALPI: No binding

B5: A05: ALPP/ALPPL2 targeting VHH domain, SEQ ID NO: 16; tested C-terminally His-tagged (protein)
VHH: QVQLVESGGGLVQAGASLTLSCAASGFTFNTRSIVWFRQAPGKEREAVSCISKVAGSTYYGDSVQGRFSSSTDNAKNTVSLQMNSLKPEDTAVYTCAASFAPNCYGWSVAANMEYWGEGTMVTVSS
modifications: C-terminal His tag
notes: as for B2
[1]
  KDapp CHO-ALPL: No binding
[2]
  KDapp CHO-ALPI: No binding

B6: E06: ALPP/ALPPL2 targeting VHH domain, SEQ ID NO: 30 (protein)
VHH: QVHLVESGGGLVQAGGSLRLSCAASRRSFSEYAMGWFRQAPGKEREFVAAIGWSGVIEYADSVKGRFTISRDNAKDTVYLQMNSLKPEDTAVYYCAAGLGIRVVSQTPAYWGQGTQVTVSS
[1]
  KDapp CHO-ALPL: No binding
[2]
  KDapp CHO-ALPI: No binding

B7: E10: ALPP/ALPPL2 targeting VHH domain, SEQ ID NO: 31 (protein)
VHH: QVQLVESGGGLVQAGGSLRLSCAVSGRALSDYNIGWFRQAPGKEREFVARKTWDGSSTRYDDSVKGRFTVSIEDAKNTAYLQMSSLKTEDTAVYYCAAGRYSRARGWEYDYWGQGTQVTVSS
[1]
  KDapp CHO-ALPL: No binding
[2]
  KDapp CHO-ALPI: No binding

B8: F05: ALPP/ALPPL2 targeting VHH domain, SEQ ID NO: 34 (protein)
VHH: B7 VHH with V24A, L29F, S30G, K51R, E73D, D74N, S84N, A104V
[1]
  KDapp CHO-ALPL: No binding
[2]
  KDapp CHO-ALPI: No binding

B9: F08: ALPP/ALPPL2 targeting VHH domain, SEQ ID NO: 35 (protein)
VHH: QVQLVESGGGSVQAGGSLRLSCAASGPSLSNYAMGWFRQAPGKEREFVAGISWGGGRTSYTDSVKGRFTISRDNAKNTVYLQMNNLKPEDTGVYYCAGRYGRGRNVEYEYDYWGQGTQVTVSS
[1]
  KDapp CHO-ALPL: No binding
[2]
  ALPI MFI as % of the ALPP MFI: 1.3%
  KDapp CHO-ALPI: Minimal
  binding to ALPI on CHO cells (in words): minimal binding

B10: C07: ALPP/ALPPL2 targeting VHH domain, SEQ ID NO: 25 (protein)
VHH: QVQLVESGGGLVQAGESLRLACAASGTIFSGNAVGWYRQAPEKQREWVSSITDYGDTDYAEAVKGRFTISRDNAKNTVYLQMNSLKPEDTAVYYCYVYQRGESEEYWGQGTQVTVSS
[1]
  KDapp CHO-ALPL: No binding
[2]
  KDapp CHO-ALPI: No binding
